Laboratory results taken from patent US20190248888A1, “METHODS OF LOWERING BLOOD GLUCOSE LEVELS” (Regeneron Pharmaceuticals, Inc., priority 2016, published 2019).

Tested on: livers of mice
Experiment: RNAseq gene expression in liver of GCGR antibody treated mice
Type: in vivo, mouse
Conditions: 21 days
Description: All procedures were conducted in compliance with protocols approved by the Institutional Animal Care and Use Committee of Regeneron Pharmaceuticals. The in vitro and in vivo characteristics of REGN1193 (H4H1327P), a potent monoclonal GCGR blocking antibody has been previously described (See U.S. Pat. No. 8,545,847). This antibody was used as the exemplary glucagon signaling pathway antagonist in all studies in this report (See the HVCR/LCVR amino acid sequence pair of SEQ ID NOs: 86/88 in the present application. See also the corresponding heavy chain complementarity determining regions (HCDRs 1-2-3 of SEQ ID NOs: 72-74-76) and the corresponding light chain complementarity determining regions (LCDRs 1-2-3 of SEQ ID NOs: 80-82-84). The GCGR antibody and isotype control antibody were diluted with sterile PBS.
Total RNA was purified from all samples using MagMAX™-96 for Microarrays Total RNA Isolation Kit (Ambion by Life Technologies) according to manufacturer's specifications. Genomic DNA was removed using MagMAX™Turbo™DNase Buffer and TURBO DNase from the MagMAX kit listed above (Ambion by Life Technologies). mRNA was purified from total RNA using Dynabeads® mRNA Purification Kit (Invitrogen). Strand-specific RNA-seq libraries were prepared using ScriptSeq™ mRNA-Seq Library Preparation Kit (Epicentre). Twelve-cycle PCR was performed to amplify libraries. Sequencing was performed on Illumina HiSeq®2000 (Illumina) by multiplexed single-read run with 33 cycles.
Raw sequence data (BCL files) were converted to FASTQ format via Illumina Casava 1.8.2. Reads were decoded based on their barcodes and read quality was evaluated with FastQC (http://www.bioinformatics.babraham.ac.uk/projects/fastqc/). Reads were mapped to the mouse transcriptome (NCBI GRCh37) using CLC Genomics Workbench Version 7.0 (CLCbio) or TopHat2 (Version 2.0.10) allowing two mismatches. Reads mapped to the exons of a gene were summed at the gene level. To identify differentially expressed genes, the statistical significance (p-value) of the differential expressions was assessed with DESeq package (version 1.6 or 2.0).
A key role of glucagon is to promote the uptake and metabolism of amino acids in the liver to provide gluconeogenic precursors. To further explore this pathway, a recently described fully human GCGR-blocking antibody (Okamato et al, 2015, Endocrinol. 156:2781-2794; See also, U.S. Pat. No. 8,545,847) derived using VelocImmune technology (Macdonald et al., 2014, PNAS 111:5147-5152; Murphy et al., 2014, PNAS 111:5153-5158) was used in the experiments provided herein. […] As shown previously (Mu et al., 2012, PLOS ONE 7:349572; Okamoto et al., 2015, Endocrinol. 156:2781-2794; Solloway et al., 2015, Cell Reports 12:495-510), and confirmed later in this study, these findings provide a mechanism for the elevated circulating amino acid levels that are observed in mice and monkeys with impaired GCGR signaling.

[1] = liver of mice, 15 mg/kg α-GCGR vs control antibody

B1: α-GCGR: potent monoclonal GCGR blocking antibody, HCVR/LCVR SEQ ID NOs: 86/88 (antibody, V domains shown)
VH: EVQLVESGGGLVQPGGSLRLSCAASGFTFSNYLMNWVRQAPGKGLEWLANIQEDGIEKYYVDSVKGRFTISRDNAKNSLYLQMNSLRAEDTAVYYCAREPSHYDILTGYDYYYGMDVWGQGTTVTVS
VL: DIQMTQSPSSLSASVGDRVTITCRASQGIRNDLGWYQQKPGKAPKRLIYAASSLQSGVPSRFSGSGSGTEFILTVSSLQPEDFATYYCLQYNSNPFTFGPGTKVDIK
[1]
  Aass Fold change: −1.85
  Abat Fold change: −1.64
  Acmsd Fold change: −2.70
  Agxt Fold change: −2.17
  Aldh4a1 Fold change: −1.64
  Aldoa Fold change: −1.15
  Arg1 Fold change: −1.56
  Asl Fold change: −1.92
  Ass1 Fold change: −3.23
  Bhmt Fold change: −2.00
  Cbs Fold change: −1.85
  Cps1 Fold change: −1.96
  Cth Fold change: −3.12
  Ddc Fold change: −2.08
  Eno1 Fold change: −1.20
  Fbp1 Fold change: −1.67
  G6pc Fold change: −1.39
  Gcat Fold change: −1.67
  Gldc Fold change: −1.72
  Gnmt Fold change: −2.56
  Got1 Fold change: −8.33
  Gpi1 Fold change: 1.03
  Gpt Fold change: −1.72
  Hgd Fold change: −1.75
  Hpd Fold change: −1.92
  Ivd Fold change: −1.56
  Lap3 Fold change: −1.56
  Mat1a Fold change: −2.04
  Mpst Fold change: −1.61
  Nags Fold change: −1.67
  Oat Fold change: −6.67
  Otc Fold change: −1.12
  Pah Fold change: −1.75
  Pck1 Fold change: −1.82
  Pgam1 Fold change: −1.20
  Pgk1 Fold change: −1.16
  Prodh Fold change: −1.67
  Sardh Fold change: −1.75
  Sds Fold change: −3.23
  Slc1a2 Fold change: −1.25
  Slc3a1 Fold change: −1.72
  Slc3a2 Fold change: −1.08
  Slc6a9 Fold change: 1.45
  Slc7a2 Fold change: −2.27
  Slc15a3 Fold change: −1.12
  Slc15a4 Fold change: −1.15
  Slc16a10 Fold change: −1.28
  Slc17a8 Fold change: 2.32
  Slc25a12 Fold change: 1.27
  Slc25a13 Fold change: −1.27
  Slc25a15 Fold change: −1.92
  Slc25a22 Fold change: −1.56
  Slc36a1 Fold change: −1.41
  Slc36a4 Fold change: −1.18
  Slc38a2 Fold change: −1.08
  Slc38a3 Fold change: −1.75
  Slc38a4 Fold change: −1.56
  Slc38a6 Fold change: −1.09
  Slc38a7 Fold change: 1.05
  Slc38a9 Fold change: 1.17
  Slc38a10 Fold change: −1.04
  Slc43a1 Fold change: −2.78
  Tat Fold change: −4.35
  Tpi1 Fold change: −1.14
  pcx Fold change: −1.15
Liver of mice, 15 mg/kg α-GCGR
  Aass expression RPKM: 60.38 RPKM
  Abat expression RPKM: 43.18 RPKM
  Acmsd expression RPKM: 3.90 RPKM
  Agxt expression RPKM: 111.91 RPKM
  Aldh4a1 expression RPKM: 64.72 RPKM
  Aldoa expression RPKM: 16.24 RPKM
  Arg1 expression RPKM: 969.96 RPKM
  Asl expression RPKM: 151.51 RPKM
  Ass1 expression RPKM: 190.00 RPKM
  Bhmt expression RPKM: 98.73 RPKM
  Cbs expression RPKM: 126.52 RPKM
  Cps1 expression RPKM: 419.74 RPKM
  Cth expression RPKM: 139.77 RPKM
  Ddc expression RPKM: 15.03 RPKM
  Eno1 expression RPKM: 14.96 RPKM
  Fbp1 expression RPKM: 365.35 RPKM
  G6pc expression RPKM: 40.65 RPKM
  Gcat expression RPKM: 18.88 RPKM
  Gldc expression RPKM: 33.42 RPKM
  Gnmt expression RPKM: 449.55 RPKM
  Got1 expression RPKM: 9.98 RPKM
  Gpi1 expression RPKM: 16.58 RPKM
  Gpt expression RPKM: 103.74 RPKM
  Hgd expression RPKM: 109.59 RPKM
  Hpd expression RPKM: 874.17 RPKM
  Ivd expression RPKM: 51.86 RPKM
  Lap3 expression RPKM: 108.58 RPKM
  Mat1a expression RPKM: 525.98 RPKM
  Mpst expression RPKM: 17.32 RPKM
  Nags expression RPKM: 13.94 RPKM
  Oat expression RPKM: 66.76 RPKM
  Otc expression RPKM: 292.99 RPKM
  Pah expression RPKM: 232.16 RPKM
  Pck1 expression RPKM: 490.87 RPKM
  Pgam1 expression RPKM: 2.12 RPKM
  Pgk1 expression RPKM: 1.91 RPKM
  Prodh expression RPKM: 89.26 RPKM
  Sardh expression RPKM: 122.51 RPKM
  Sds expression RPKM: 39.47 RPKM
  Slc1a2 expression RPKM: 14.89 RPKM
  Slc3a1 expression RPKM: 9.78 RPKM
  Slc3a2 expression RPKM: 14.56 RPKM
  Slc6a9 expression RPKM: 10.29 RPKM
  Slc7a2 expression RPKM: 67.24 RPKM
  Slc15a3 expression RPKM: 1.15 RPKM
  Slc15a4 expression RPKM: 5.47 RPKM
  Slc16a10 expression RPKM: 14.93 RPKM
  Slc17a8 expression RPKM: 4.18 RPKM
  Slc25a12 expression RPKM: 4.68 RPKM
  Slc25a13 expression RPKM: 76.40 RPKM
  Slc25a15 expression RPKM: 50.85 RPKM
  Slc25a22 expression RPKM: 14.40 RPKM
  Slc36a1 expression RPKM: 3.90 RPKM
  Slc36a4 expression RPKM: 1.34 RPKM
  Slc38a2 expression RPKM: 17.59 RPKM
  Slc38a3 expression RPKM: 285.49 RPKM
  Slc38a4 expression RPKM: 261.42 RPKM
  Slc38a6 expression RPKM: 1.72 RPKM
  Slc38a7 expression RPKM: 4.41 RPKM
  Slc38a9 expression RPKM: 1.48 RPKM
  Slc38a10 expression RPKM: 19.58 RPKM
  Slc43a1 expression RPKM: 0.83 RPKM
  Tat expression RPKM: 197.67 RPKM
  Tpi1 expression RPKM: 46.09 RPKM
  pcx expression RPKM: 68.44 RPKM
Livers of mice, 15 mg/kg
  expression of genes involved in amino acid metabolism, urea cycle and gluconeogenesis: reduced expression
  expression of mitochondrial amino acid transporters Slc25a15 and Slc25a22: significantly reduced
  reduction of expression of plasma membrane amino acid transporters Slc38a3, Slc38a4, Slc7a2 and Slc3a1: 30-50%
